The source of these data is PMC4520091.

In data set [1] the test system is yPrp3CTF R304A. As to the kind of experiment: EMSA. To be noted: tRNA competitor; apparent Kd; EMSA: 20 mM Tris-HCl pH 7.0, 150 mM NaCl, 2 mM DTT, 0.5 ug/ul tRNA, 4 C; titrations: 20 mM HEPES pH 6.8, 150 mM NaCl, 0.33 ug/ul tRNA; human FL/N/C: 10 mM Tris ….
For data set [2], the system named is yPrp3DUF1115. As to the kind of experiment: EMSA. The conditions noted are these: tRNA competitor; apparent Kd; EMSA: 20 mM Tris-HCl pH 7.0, 150 mM NaCl, 2 mM DTT, 0.5 ug/ul tRNA, 4 C; titrations: 20 mM HEPES pH 6.8, 150 mM NaCl, 0.33 ug/ul tRNA; human FL/N/C: 10 mM Tris …. Background: In EMSA bound probe runs differently from free probe, usually more slowly.
For data set [3], the system named is yPrp3CTF R322A. Description: EMSA. The conditions noted are these: tRNA competitor; apparent Kd; EMSA: 20 mM Tris-HCl pH 7.0, 150 mM NaCl, 2 mM DTT, 0.5 ug/ul tRNA, 4 C; titrations: 20 mM HEPES pH 6.8, 150 mM NaCl, 0.33 ug/ul tRNA; human FL/N/C: 10 mM Tris ….
Data set [4] has as its system yPrp3CTF. As to the kind of experiment: EMSA. To be noted: tRNA competitor, EMSA: 20 mM Tris-HCl pH 7.0, 150 mM NaCl, 2 mM DTT, 0.5 ug/ul tRNA, 4 C, titrations: 20 mM HEPES pH 6.8, 150 mM NaCl, 0.33 ug/ul tRNA, human FL/N/C: 10 mM Tris ….
The test system of data set [5] is yPrp3CTF R304A. As to the kind of experiment: ITC. The conditions noted are these: 20 C, GAGA-fused RNA; EMSA: 20 mM Tris-HCl pH 7.0, 150 mM NaCl, 2 mM DTT, 0.5 ug/ul tRNA, 4 C; titrations: 20 mM HEPES pH 6.8, 150 mM NaCl, 0.33 ug/ul tRNA; human FL/N/C: 10 mM Tris ….
Data set [6] concerns yPrp3DUF1115. As to the kind of experiment: ITC. The conditions noted are these: EMSA: 20 mM Tris-HCl pH 7.0, 150 mM NaCl, 2 mM DTT, 0.5 ug/ul tRNA, 4 C; titrations: 20 mM HEPES pH 6.8, 150 mM NaCl, 0.33 ug/ul tRNA; human FL/N/C: 10 mM Tris ….
For data set [7], the system named is yPrp3CTF R322A. Description: ITC. To be noted: 20 C, GAGA-fused RNA; EMSA: 20 mM Tris-HCl pH 7.0, 150 mM NaCl, 2 mM DTT, 0.5 ug/ul tRNA, 4 C; titrations: 20 mM HEPES pH 6.8, 150 mM NaCl, 0.33 ug/ul tRNA; human FL/N/C: 10 mM Tris ….
For data set [8], the system named is yPrp3CTF. Description: ITC. The conditions noted are these: 20 C, GAGA-fused RNA; EMSA: 20 mM Tris-HCl pH 7.0, 150 mM NaCl, 2 mM DTT, 0.5 ug/ul tRNA, 4 C; titrations: 20 mM HEPES pH 6.8, 150 mM NaCl, 0.33 ug/ul tRNA; human FL/N/C: 10 mM Tris ….

For yU4/U6 stem II+13nt, the Kd is 1580 nM in data set [1]; 1830 nM in data set [2]; 2630 nM in data set [3]; 920 nM in data set [4] (apparent Kd); 260 nM in data set [5]; 380 nM in data set [6]. Also, the Kd in data set [7] worked out at 400 nM; in data set [8], 110 nM.
Turning to yU4/U6 stem II+13nt U4 C12G, in data set [4], the binding signal (fold lower affinity than wt) worked out at 2.
yU4/U6 stem II+13nt U6 C69G showed a binding signal (fold lower affinity than wt) in data set [4] of 2.
